Measured values: patent US8986997B2, “Methods and compositions for increasing biological molecule stability” (The Regents of the University of Michigan, priority 2007, dated 2015)
Entries after “also recorded” stand apart in the source; their conditions may differ.

Key:
colicin E7 = molecular target: T1, colicin E7 (Escherichia coli, UniProt Q47112); settings: in words; listed as Im7; cited from earlier work
T1 sequence (Q47112 1-576): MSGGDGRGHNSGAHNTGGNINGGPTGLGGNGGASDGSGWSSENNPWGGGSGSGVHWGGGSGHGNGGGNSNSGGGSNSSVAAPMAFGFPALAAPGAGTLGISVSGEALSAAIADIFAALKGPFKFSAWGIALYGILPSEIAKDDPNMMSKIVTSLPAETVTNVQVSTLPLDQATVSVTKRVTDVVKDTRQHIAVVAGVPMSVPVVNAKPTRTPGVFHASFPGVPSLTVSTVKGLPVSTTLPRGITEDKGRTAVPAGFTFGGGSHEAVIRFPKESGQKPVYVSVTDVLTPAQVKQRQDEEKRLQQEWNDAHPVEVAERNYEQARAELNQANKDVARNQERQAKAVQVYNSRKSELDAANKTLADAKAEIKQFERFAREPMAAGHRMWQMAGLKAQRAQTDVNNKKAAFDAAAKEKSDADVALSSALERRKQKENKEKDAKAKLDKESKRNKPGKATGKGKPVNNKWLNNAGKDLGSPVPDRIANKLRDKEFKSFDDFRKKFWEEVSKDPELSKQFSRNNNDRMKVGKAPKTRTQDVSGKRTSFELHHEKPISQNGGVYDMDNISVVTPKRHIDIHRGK

[1] = wild type protein; in words; cited from earlier work
[2] = Equilibrium unfolding experiments (urea denaturation, folding free energy); format: physicochemical
Experimental: Proteins were dissolved to a concentration of approximately 100 μM in 50 mM Tris-Cl buffer at pH 7.5, containing 400 mM Na2SO4. Substocks of each mutant were made up in the same buffer containing 0, 2, 4, 6 and 8 M urea. These substocks were titrated into a black polypropylene 384 well microtitre plate (Greiner) to create eight replicates of a urea titration from 0 to 8 M urea in steps of 0.2 M urea, using a Hamilton Microlab Star robot. The plates were briefly centrifuged and incubated at 37° C. for one hour to allow the unfolding reaction to come to equilibrium. The tryptophan fluorescence of each sample was measured using a PerkinElmer EnVision platereader. The excitation wavelength was 280 nm and emission was measured using a 340-350 nm filter. Data were normalized and processed using Igor Pro (Wavemetrics). The entire dataset was fitted globally to a two-state equilibrium unfolding equation and the ΔG values for each Im7 variant were compared to that of the wildtype protein under identical conditions. ΔΔGUN=ΔGUN(mutant)−ΔGUN(wildtype)

B1: Wildtype Im7: small helical protein that confers immunity to bacterial colicin E7 (protein)
chain: MELKNSISDYTEAEFVQLLKEIEKENVAATDDVLDVLLEHFVKITEHPDGTDLIYYPSDNRDDSPEGIVKEIKEWRAANGKPGFKQG
affinity for colicin E7 (colicin E7): binds very tightly; also recorded: picomolar affinity

B2: G-CSF: granulocyte-colony stimulating factor, sold under the trademark names Neopogen and Neulasta (protein, UniProt P09919 31-207, looked up)
Granulocyte …: TPLGPASSLPQSFLLKCLEQVRKIQGDGAALQEKLVSECATYKLCHPEELVLLGHSLGIPWAPLSSCPSQALQLAGCLSQLHSGLFLYQGLLQALEGISPELGPTLDTLQLDVADFATTIWQQMEELGMAPALQPTQGAMPAFASAFQRRAGGVLVASHLQSFLEVSYRVLRHLAQP
tendency to aggregate [1]: high tendency to aggregate

B3: N26K: Im7 variant more stable than Im7 wt, in Kan55-Im7 (protein)
chain: MELKNSISDYTEAEFVQLLKEIEKEKVAATDDVLDVLLEHFVKITEHPDGTDLIYYPSDNRDDSPEGIVKEIKEWRAANGKPGFKQG
stability of Im7 variant relative to Im7 wt [2]: more stable
